Earlier results as cited in publication PMC9161494.

Target: EGFR (Homo sapiens) (UniProt P00533)

## PEPDG278D (from UniProt P12955)
  Kd: 17.7 nM
